Experimental data taken from the RNAGym collection of RNA variant scans (doi:10.1093/molbev/msab373).

B1: Azoarcus group I ribozyme (parent)
chain: GUGCCUUGCGCCGGGAAACCACGCAAGGGAUGGUGUCAAAUUCGGCGAAACCUAAGCGCCCGCCCGGGCGUAUGGCAACGCCGAGCCAAGCUUCGGCGCCUGCGCCGAUGAAGGUGUAGAGACUAGACGGCACCCACCUAAGGCAAACGCUAUGGUGAAGGCAUAGUCCAGGGAGUGGCGAAAGUCACACAAACCGG

Variants of: B1
Test: reverse-splicing fitness (ratio to wild type); higher = more active; in vitro selection; Mg2+ level not given
Method in brief: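 An in vitro group I ribozyme library with randomized positions was T7-transcribed and gel-purified. In triplicate, 10 pmol RNA in EPPS pH 7.5 was reacted with 50 pmoles of a 30-nt RNA substrate for 1 h at 37 °C across several added MgCl2 levels (1–48 mM), then stopped with EDTA. Products were reverse transcribed from a substrate-complementary primer, PCR-amplified and sequenced (HiSeq 4000). Fitness is a variant's read proportion after selection over that before, normalised to wild type.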

Question: For C82A A111U A120G A145C C150A C169U U176C, which reverse-splicing fitness is on record?
Answer: 0.0122

Question: With C82A A111U A120C A145C C150U C169A U176A as the variant, how does the reverse-splicing fitness read?
Answer: 0.0182

Question: With C82A A111U A120C A145C C150U C169A U176G as the variant, how does the reverse-splicing fitness read?
Answer: 0.00873

Question: For C82A A111U A120C A145C C150U C169A U176C, which reverse-splicing fitness is on record?
Answer: 0.0162

Question: With C82A A111G C169A U176A as the variant, how does the reverse-splicing fitness read?
Answer: 0.0155

Question: For C82A A111G C169A U176C, which reverse-splicing fitness is on record?
Answer: 0.019

Question: For C82A A111G C169A U176G, which reverse-splicing fitness is on record?
Answer: 0.00616

Question: Which reverse-splicing fitness does the source give for C82A A111U A120G A145C C150U C169U here?
Answer: 0.00725

Question: For C82A A111U A120G A145C C150U C169G, which reverse-splicing fitness is on record?
Answer: 0.00823

Question: Which reverse-splicing fitness does the source give for C82A A111U A120G A145C C150U C169A here?
Answer: 0.00869

Question: Which reverse-splicing fitness does the source give for C82A A111U A120C A145G C169A U176C here?
Answer: 0.0332

Question: For C82A A111U A120C A145G C169A U176A, which reverse-splicing fitness is on record?
Answer: 0.0312

Question: Which reverse-splicing fitness does the source give for C82A A111U A120C A145G C169A U176G here?
Answer: 0.00699

Question: For C82A A111U A120C C169U U176A, which reverse-splicing fitness is on record?
Answer: 0.0177

Question: Which reverse-splicing fitness does the source give for C82A A111U A120C C169U U176C here?
Answer: 0.0158

Question: Which reverse-splicing fitness does the source give for C82A A111U A120C C169U U176G here?
Answer: 0.00659

Question: Which reverse-splicing fitness does the source give for C82A A111U A120C C150U U176C here?
Answer: 0.022

Question: Which reverse-splicing fitness does the source give for C82A A111U A120C C150U U176G here?
Answer: 0.00805

Question: Which reverse-splicing fitness does the source give for C82A A111U A120C C150U U176A here?
Answer: 0.0125

Question: Which reverse-splicing fitness does the source give for C82A A111U A120C A145G C150G C169U U176G here?
Answer: 0.00787

Question: With C82A A111U A120C A145G C150G C169U U176A as the variant, how does the reverse-splicing fitness read?
Answer: 0.0146

Question: With C82A A111U A120C A145G C150G C169U U176C as the variant, how does the reverse-splicing fitness read?
Answer: 0.0129

Question: Which reverse-splicing fitness does the source give for C82A A111U A120C A145U C150G C169U U176C here?
Answer: 0.0117

Question: Which reverse-splicing fitness does the source give for C82A A111U A120C A145U C150G C169U U176A here?
Answer: 0.00711

Question: Which reverse-splicing fitness does the source give for C82A A111U A120C A145U C150G C169U U176G here?
Answer: 0.00741

Question: With C82A A111U A120G A145C C150A as the variant, how does the reverse-splicing fitness read?
Answer: 0.00759

Question: For C82A A111U A120G A145C C150U, which reverse-splicing fitness is on record?
Answer: 0.00935

Question: Which reverse-splicing fitness does the source give for C82A A111U A120G A145C C150G here?
Answer: 0.00667

Question: Which reverse-splicing fitness does the source give for C82A A111U A120C C150U C169A U176A here?
Answer: 0.0162

Question: Which reverse-splicing fitness does the source give for C82A A111U A120C C150U C169A U176G here?
Answer: 0.00841

Question: With C82A A111U A120C C150U C169A U176C as the variant, how does the reverse-splicing fitness read?
Answer: 0.0174

Question: With C82A A111U A120G A145C C150U C169G U176A as the variant, how does the reverse-splicing fitness read?
Answer: 0.0224

Question: For C82A A111U A120G A145C C150U C169G U176C, which reverse-splicing fitness is on record?
Answer: 0.0134

Question: Which reverse-splicing fitness does the source give for C82A A111U A120G A145C C150U C169G U176G here?
Answer: 0.00608

Question: Which reverse-splicing fitness does the source give for C82A A111G C169G U176A here?
Answer: 0.0181

Question: For C82A A111G C169G U176G, which reverse-splicing fitness is on record?
Answer: 0.00548

Question: Which reverse-splicing fitness does the source give for C82A A111G C169G U176C here?
Answer: 0.0207

Question: Which reverse-splicing fitness does the source give for C82A A111G U176A here?
Answer: 0.189

Question: Which reverse-splicing fitness does the source give for C82A A111G U176C here?
Answer: 0.262

Question: With C82A A111G U176G as the variant, how does the reverse-splicing fitness read?
Answer: 0.0537

Question: With C82A A111U A120C A145U C150A C169G U176A as the variant, how does the reverse-splicing fitness read?
Answer: 0.0219

Question: With C82A A111U A120C A145U C150A C169G U176C as the variant, how does the reverse-splicing fitness read?
Answer: 0.0263

Question: With C82A A111U A120C A145U C150A C169G U176G as the variant, how does the reverse-splicing fitness read?
Answer: 0.00723

Question: With C82A A111U A120C A145C C150U C169U as the variant, how does the reverse-splicing fitness read?
Answer: 0.0105

Question: For C82A A111U A120C A145C C150U C169A, which reverse-splicing fitness is on record?
Answer: 0.00907

Question: For C82A A111U A120C A145C C150U C169G, which reverse-splicing fitness is on record?
Answer: 0.00912

Question: For C82A A111U A120C A145C C150A U176G, which reverse-splicing fitness is on record?
Answer: 0.00578

Question: With C82A A111U A120C A145C C150A U176A as the variant, how does the reverse-splicing fitness read?
Answer: 0.0115

Question: With C82A A111U A120C A145C C150A U176C as the variant, how does the reverse-splicing fitness read?
Answer: 0.0167

Question: For C82A A111U A120C A145C C150A C169U, which reverse-splicing fitness is on record?
Answer: 0.0111

Question: Which reverse-splicing fitness does the source give for C82A A111U A120C A145C C150A C169A here?
Answer: 0.01

Question: Which reverse-splicing fitness does the source give for C82A A111U A120C A145C C150A C169G here?
Answer: 0.00947

Question: Which reverse-splicing fitness does the source give for C82A A111U A120C A145C C150G C169A U176C here?
Answer: 0.011

Question: Which reverse-splicing fitness does the source give for C82A A111U A120C A145C C150G C169A U176G here?
Answer: 0.0073

Question: Which reverse-splicing fitness does the source give for C82A A111U A120C A145C C150G C169A U176A here?
Answer: 0.00999

Question: Which reverse-splicing fitness does the source give for C82A A111U A120C C150U here?
Answer: 0.0206

Question: For C82A A111U A120C C150G, which reverse-splicing fitness is on record?
Answer: 0.00909

Question: Which reverse-splicing fitness does the source give for C82A A111U A120C C150A here?
Answer: 0.0118

Question: With C82A A111U A120C A145G C150G C169G U176G as the variant, how does the reverse-splicing fitness read?
Answer: 0.00673

Question: For C82A A111U A120C A145G C150G C169G U176A, which reverse-splicing fitness is on record?
Answer: 0.0112

Question: With C82A A111U A120C A145G C150G C169G U176C as the variant, how does the reverse-splicing fitness read?
Answer: 0.0155

Question: Which reverse-splicing fitness does the source give for C82A A111U A120C A145C C169G U176G here?
Answer: 0.00816

Question: Which reverse-splicing fitness does the source give for C82A A111U A120C A145C C169G U176C here?
Answer: 0.0325

Question: With C82A A111U A120C A145C C169G U176A as the variant, how does the reverse-splicing fitness read?
Answer: 0.0334

Question: For C82A A111U A120G A145C C150G C169A, which reverse-splicing fitness is on record?
Answer: 0.00846

Question: Which reverse-splicing fitness does the source give for C82A A111U A120G A145C C150G C169G here?
Answer: 0.00674

Question: Which reverse-splicing fitness does the source give for C82A A111U A120G A145C C150G C169U here?
Answer: 0.00766

Question: Which reverse-splicing fitness does the source give for C82A A111U A120C C150G C169U U176G here?
Answer: 0.0062

Question: With C82A A111U A120C C150G C169U U176C as the variant, how does the reverse-splicing fitness read?
Answer: 0.011

Question: For C82A A111U A120C C150G C169U U176A, which reverse-splicing fitness is on record?
Answer: 0.00757

Question: With C82A A111U A120C C150G C169G U176A as the variant, how does the reverse-splicing fitness read?
Answer: 0.00746

Question: For C82A A111U A120C C150G C169G U176G, which reverse-splicing fitness is on record?
Answer: 0.00574

Question: Which reverse-splicing fitness does the source give for C82A A111U A120C C150G C169G U176C here?
Answer: 0.00529

Question: Which reverse-splicing fitness does the source give for C82A A111G C150U here?
Answer: 0.205

Question: For C82A A111U A120G A145C C150U C169A U176C, which reverse-splicing fitness is on record?
Answer: 0.00677

Question: For C82A A111U A120G A145C C150U C169A U176G, which reverse-splicing fitness is on record?
Answer: 0.00508

Question: With C82A A111U A120G A145C C150U C169A U176A as the variant, how does the reverse-splicing fitness read?
Answer: 0.0127

Question: With C82A A111U A120G A145C C150A U176G as the variant, how does the reverse-splicing fitness read?
Answer: 0.00549

Question: With C82A A111U A120G A145C C150A U176A as the variant, how does the reverse-splicing fitness read?
Answer: 0.00932

Question: With C82A A111U A120G A145C C150A U176C as the variant, how does the reverse-splicing fitness read?
Answer: 0.0098

Question: For C82A A111U A120G A145C C150G C169A U176C, which reverse-splicing fitness is on record?
Answer: 0.00639

Question: For C82A A111U A120G A145C C150G C169A U176G, which reverse-splicing fitness is on record?
Answer: 0.00554

Question: For C82A A111U A120G A145C C150G C169A U176A, which reverse-splicing fitness is on record?
Answer: 0.00838
